# Measured values published in a protein production outcome set (Wang et al. 2014).
# Assay: label from the status in PepcDB records
row,Sequence,protein production
1,MALDEAPAEARPGSRAVELEIDGRSRIFDIDDPDLPKWIDEEAFRSDDYPYKKKLDREEYEETLTKLQIELVKVQFWMQATGKRVMAVFEGRDAAGKGGAIHATTANMNPRSARVVALTKPTETERGQWYFQRYVATFPTAGEFVLFDRSWYNRAGVEPVMGFCTPDQYEQFLKEAPRFEEMIANEGIHLFKFWINIGREMQLKRFHDRRHDPLKIWKLSPMDIAALSKWDDYTGKRDRMLKETHTEHGPWAVIRGNDKRRSRINVIRHMLTKLDYDGKDEAAIGEVDEKILGSGPGFLR,not failed
2,MALDSSGKQPEQQQQQQPRASSGNGEARLKLRRTPNEEHEPENYEDLPLDYSPSLFTSLERYLPEQLLNSTRIDKASFMRDLLLRYSPDTERVRVLRHKEYRDKIMSSYQRLHGEIYTLDPSSFFAPSFLGAFSRKSEPNFRSSMVESYPGIFTFEMFKPQFCEMLLAEVEHMEKWVYDSRSTIMRPNTMNNFGVVLDDFGFDSMLQKLVDDFISPIAQVLFPEVCGTSLDSHHGYIVEYGKDRDVDLGFHVDDSEVSLNVCLGKQFSGGELYFRGVRCDKHVNSDSTEKEVYDYSHVPGHAILHRGRHRHGARATTSGHRANLILWCRSSTFREMKNYQRDFSGWCGGCKLDKQRRQRDSINATKEILARKAAEKTLVELASKSCAE,failed
3,MALEPAEIFEKVSPSVWEVRVIGPDGKGLSMGSAVVIGDGVVITNCHVLRGGKQVWLKRGNANFGARLQYPDVERDLCQLRVADFHYPPVTLAPGSALVTGQKVYAIGNPLGLELTISEGLISSLRTDDDGRLKSVQTSAAISRGSSGGGLFDANGRLIGITDHQVVLTLGQNLNFAIPADWIADVPARAQKALAARAAAASAVVASTPAPQSAAPTPAPAPAPRHQGELGPNQQTGFSVYLQKTWPKAFVAADGDHYYYWTGKNAELYALSACQERWQNCSVYARNNTVVEPVEGTGERPGAAR,failed
4,MALGLLPLVLLTLSIFIYLVSKMSWKMGALLNFLAGLFTILYVFTLKVGTFEKLDLFGLNIQFEWTNVSFYFSFVSLLVIVSVMLFSTKWLETQKYRASYNMFLLMVTAGSLGVFMAADLITLYVFWEIAVLSSLLIVPMEKKEARKAVVVYAVMSAVGTYAFLYGTFLAYQRYGTLNIHGIAQGMLNDTSIGFKMAVFLLLSAAGIAKSGIFPLHIWLRETHGLAPNAFSSVLSGQFIKLGNYIFLLVLSVIPSLKVFSEVTVYSGIPLPNYILIALGNVSIVIGTLMAIKQDDMKMLMAYSSVANGGYILIGIGTMDPLGFEGGMFHIFNHAVASAVIFMAFAAVIYRTKTQKISEMGGLIHKMPVTFLVYLFSIISLAGIPPMSGFISKWMIYQALVRKGMFITAFLAFFGSIGSFLYVFRPLAGVFLGQLPRKYRDVKEAPAVMLTPMVLLVLISFFLGVWPFPILQAIEKIRVDLDVAPSFKISDPENWLVKGFAGSWNPVLVFGLFLVGFIVAYILYSLFPRPKKVDLLAPHREEGTPINIYTGGEFIYNPDLYHYNTKFYAGFERMYEKHPSWEKLLKMFGKLFHDAGEWIHSWFFEPSSSAYTFWVVVTLLLVFWVRW,failed
5,MALKATIYKADLNIANMDSHHYADYQLTLALHPSETIERLMVRILAFARFADENLQFTKDLFETDEPALWQKDLTGQLEQWIELGQPSEDKLKKASARCKHVVVVTYGQQVDEWWKRNNKVKTLSNVEVWQLAPETTSQLEKLCERTMQLQLNVMDGEWTLLNDHEQVDVSWTKLH,failed
6,MALLKSPIFGICFSLILYTIGQDLFKKSKGFFLLQPLFFAMVAGIIVLVLLAKGLGTDVKTLYTQAYKPGGDLIFWFLNPATIAFAVPLYKKNDAVKKYWKEIISSLIIGMVVSLIIIVAISKAIGLSQASTASMLPQAATTAIALPIAHAIGGNTAITAMACILNAVIIYALGKKLVALFHLNKSEIGVGLGLGTSGHTVGAAFALELGELQGAMAAIAVVVIGLVVDLVIPIFSYMIGLVH,failed
7,MALLLAALLVLLTALLAVRLPAWASALLLGLLAGSGYALGVRSEALPAGALLLLGALAAPRLYLGPRRRKRPERRPPGPKRPAAAGTTAEREALSQRYEILEKVGLGGMATVYKAKDRKTGRLVALKVPQERFLGDPRFVRRFHREAEVLTRMDHPNIVKVYDHGQVEGVHYIAMEFLDGEGLDKLIEERRLSLRQAAAILARVADALKHIHAQGIVHRDIKPGNIMVLKGALREDGVDPRGVRLMDFGIAAGRVLTRLTITGARIGTPVYMSPEQAKGQKLDHRSDIYSLGIVLYEALTGQPPFTGGYETVIHQQIFQMPTPPKQLRPEIPQALSDLVLRMLEKDPAKRPGLDEVVRVLEGPWEEERELPEAQYLLVAVEAKKGAVRLLDLEGTPARLLSGVGSGAGQFPSPPLAVAADPEGGIWVAVFQHGERLVHRLSPQGEVLLSTGPYGMKPGEFLLPVGLAVLEDQVFVLDGETATVSRLDLAGRYQGRFGGQGLGRGTFQDPKALVAAEGHLFVLDYGNRQVQRLTPEGGYLSRYAFRRSREDGALRLLGGVGVGEGRLYLYDVEAVKVRVLDLSGRLLASYPLPLLEGEDRMSLVELLPVGRVLYAARRGSSRIHRISLDTGEALPPLEVYAPVRGLALWRRTP,failed
8,MALMTNKTRALLIGGHGKVALLATPMLIDASVQVTSMYRNPDHRSEIEALGATTLERDVTTLSVEDWADLLKDFDVVVWSAGNGGKNGADATYAIDRDAAIASIDGAASLGEKAPRYIMVSYIGSSTHTIDPSASFYPYAESKKAADEHLSSTNLDYLILAPAALTLDEVNGVEVIADTNEAAAGRTTSRVLVAEVITEFVVRDFPQTRVLPFVDGESPLEHHHHHH,not failed
9,MALNLKQRLEQKFEEEIRFFKGMVSQPKKVGAIVPTSSITAKKMASVINPHSGLPVLELGPGTGVITKAILARGIKPESLTAIEYSTDFYNQLLRSYPGVNFVNGDAFDLDATLGEHKGQMFDSVISAVPMLNFPMAARIKLLDELLKRVPHGRPVVQISYGPISPIVAQPHLYHIRHFDFIVRNIPPAQLWTYTRALEHHHHHH,failed
10,MALPHVVSSPSSTSLSPSFKSKPPFHSLRSLSPTVDNRRRCKLNSSFRCSSSSFSEKHHNAKSPKSDDIVELPLFPLPLVLFPGAILPLQIFEFRYRIMMHTLLQSDLRFGVVYSDSVSGSAAEVGCVGEVVKHERLVDDRFFLVCKGQERFRVTNVVRTKPYLVGEVTWLEDRPSGEENLDSLANEVEVLMKEVIRLSNRLNGKAEKEVQDLRRNQFPTPFSFFVGSTFEGAPREQQALLELEDTAARLKRERETLRNTLNYLTAASAVKDVFPSSS,failed
11,MALQSSVRAFKKPPRPLVDEVRFLRSWIEKPLHMGAVMPSGKLLARTMARYVDIQSDGPVIELGPGTGAITNALVEHGVDQKRLVLLEFDPGFCALLRERFPLAKVVQGDAYRLRDSLWDALEIPATAVVSGLPLVTKPMLTRMKLIRDAFTLLEPGAPFVQFTYSVAPPIPKSLPGVSTEGSERIWMNVPPARVWVYRKRLEHHHHHH,failed
12,MALRSLVLFAALALVGCSSSPTADLVLTNGTVATLDDDHEQVEALAAADDTLLAVGSADAIDAYVGGDTRVIDLQGRLAVPGFIEGHGHYMGMGQAQMQLDLLGTSSWGRVVAKVDSSADETASGAWVEGRGWHQEKWTSTPERMVRGFPTNARLNEAAPDTPVYLTHASGHAAIANDAALEAAGIGPNTPDPEGGTIVRDAQERVTGVLLETAAGLVQEALDASRSGMSAADRRARRERQVRLAAEEALANGVTSFQDQGASFETIRLYREMAERGALDIRMYAMVAQGEVTPETQERLAEIRTVGAADQHLTVRAIGEVTVDGALGSRSAWMLEPYDDAPNDTGINVTPMERVREIAEIGLDEDYQIAVHAIGDRANRETLDLYASLFEAADGRGAERRWRVEHAQHLHPDDISRFADLGVMASMQAIHACSDAPYNYQRLGAQRVDQGAYLWNTLWADGAVVGNGTDVPVEKIDPLASLHCTATRQVPGTDTTFTPDETLTRRRALQSYTINNARMAFEEDVKGTLTPGKLADVTVLSENILTGPPERLREATVDYTIVGGEVAYANE,failed
13,MALSADIVGMHYRYPDHYEVEREKIREYAVAVQNDDAWYFEEDGAAELGYKGLLAPLTFICVFGYKAQAAFFKHANIATAEAQIVQVDQVLKFEKPIVAGDKLYCDVYVDSVREAHGTQIIVTKNIVTNEEGDLVQETYTTLAGRAGLEHHHHHH,not failed
14,MALTEAWLIEKANRKLNAGGMYKITSDKTRNVIKKMAKEGIYLCVAQGYRSTAEQNALYAQGRTKPGAIVTNAKGGQSNHNYGVAVDLCLYTNDGKDVIWESTTSRWKKVVAAMKAEGFKWGGDWKSFKDYPHFELCDAVSGEKIPAATQNTNTNSNRYEGKVIDSAPLLPKMDFKSSPFRMYKVGTEFLVYDHNQYWYKTYINDKLYYMYKSFCDVVAKKDAKGRIKVRIKSAKDLRIPVWNNTKLNSGKIKWYAPNTKLAWYNNGKGYLELWYPSDGWYYTANYFLK,failed
15,MAMNLRKNQAPLYIKVHEIDNTAIIVNDGGLPKGTVFSCGLVLEEDVPQGHKVALTDLNQGDEIVRYGEVIGFADETIKRGSWIREALVRMPAP,failed
16,MAMPEIDALLGLSFCLYFFDNKQHKLPHIHVKYGSYELIIAIETGECLEGYLPNKQRKRAENHILEHREQLMVMWNKAVNGENPGKLGDLCLEHHHHHH,failed
17,MANENVAFENKRQVYHYEPPIQKEEAIPKQYFAGFWIRFLAYLVDLVVIAALKGIIINPIFRVSGMGMDDSFFTFYWGMTTIIFLAYFILLTKFFGQTLGKMLFGLRVVKLDGGKLTWLTVLFREGAMRFVLKTIWPLYVVCAFTPNKQGIADFFESTSVVHTGYLELDEKWVNGAKK,failed
18,MANIVFIATSLDGYIADKRGKLDWLHSVPNPNNVDTGFVALMERVDGLVMGRNTLDMVLSFDCDWPYSKPVFVLSNTMTEVPQGYEDKVFLVKGKLVDIIADLNAKGFNELYIDGGVTIQNFLKEDLIDEMVITRFPILLGGGVPLFGELESSLSFNVIKSEVVLDSLTQTTYHRKRA,not failed
19,MANKKGRRRSFGSCRQLASGRWQVRYRDPQTGLLRPAEKTYETKTDAQVALTHIEADITRGQWADPDAGDVNFADYATAWLRDRKLADRTRERNESVMRLHVVPVFGAGSIADVTTARVRSWRGKLLAAGVGEPTVVKAYQLLRALMNTAVDDELIRRNPCRIKGADSYDVPERPVLSVAEVFGVAYAIAPRYRLLVLLAAFTTLRFGELAALRRKDIDLNGRLVVVRRAQAELQNGRLFDKAPKSAAGLRTVSFPAELVDEISHHLKHYAADGQEGHLFVGPQGGQLRRSNFRDDWIKARKAAGVSPKLHFHDLRHTGNTLASTAGASTRELMTRMGHSSSRAALIYQHMTSDRDRTIADRLGAMIRNGEGDLTAAGD,failed
20,MANKNPLQKPFLFIILSINLIFLQAETTTQISTKKTYVIHMDKSAMPLPYTNHLQWYSSKINSVTQHKSQEEEGNNNRILYTYQTAFHGLAAQLTQEEAERLEEEDGVVAVIPETRYELHTTRSPTFLGLERQESERVWAERVTDHDVVVGVLDTGIWPESESFNDTGMSPVPATWRGACETGKRFLKRNCNRKIVGARVFYRGYEAATGKIDEELEYKSPRDRDGHGTHTAATVAGSPVKGANLFGFAYGTARGMAQKARVAAYKVCWVGGCFSSDILSAVDQAVADGVQVLSISLGGGVSTYSRDSLSIATFGAMEMGVFVSCSAGNGGPDPISLTNVSPWITTVGASTMDRDFPATVKIGTMRTFKGVSLYKGRTVLPKNKQYPLVYLGRNASSPDPTSFCLDGALDRRHVAGKIVICDRGVTPRVQKGQVVKRAGGIGMVLTNTATNGEELVADSHMLPAVAVGEKEGKLIKQYAMTSKKATASLEILGTRIGIKPSPVVAAFSSRGPNFLSLEILKPDLLAPGVNILAAWTGDMAPSSLSSDPRRVKFNILSGTSMSCPHVSGVAALIKSRHPDWSPAAIKSALMTTAYVHDNMFKPLTDASGAAPSSPYDHGAGHIDPLRATDPGLVYDIGPQEYFEFLCTQDLSPSQLKVFTKHSNRTCKHTLAKNPGNLNYPAISALFPENTHVKAMTLRRTVTNVGPHISSYKVSVSPFKGASVTVQPKTLNFTSKHQKLSYTVTFRTRFRMKRPEFGGLVWKSTTHKVRSPVIITWLPPL,failed
